Biological target: actin filaments (F-actin, rabbit skeletal muscle) (rabbit, UniProt P68135 1-377)
Test: co-sedimentation

Kd: ~5 µM
B1: GFP–TipAct (other)
chain: DERDRVQKKTFTKWVNKHLMKVRKHINDLYEDLRDGHNLISLLEVLSGIKLPREKGRMRFHRLQNVQIALDFLKQRQVKLVNIRNDDITDGNPKLTLGLIWTIILHFQISDIYISGESGDMSAKEKLLLWTQKVTAGYTGIKCTNFSSCWSDGKMFNALIHRYRPDLVDMERVQIQSNRENLEQAFEVAERLGVTRLLDAEDVDVPSPDEKSVITYVSSIYDAFPKVPEGGEGEMANRLAGLENSLESEKVSREQLIKQKDQLNSLLASLESEGAEREKRLRELEAKLDETLKNLELEKLARMELEARLAKTEKDRAILELKLAEAIDEKSKLEESSAAGGQGNSRRGLNKPSKIPTMSKKTTTASPRTPGPKR
